For the data set the following is noted: Bos taurus; pH 8; 30 °C; GdnHCl; CD; borate 10 mM.

Chain of Phospholipase A2 wild type, P00593 (P00593 whole entry): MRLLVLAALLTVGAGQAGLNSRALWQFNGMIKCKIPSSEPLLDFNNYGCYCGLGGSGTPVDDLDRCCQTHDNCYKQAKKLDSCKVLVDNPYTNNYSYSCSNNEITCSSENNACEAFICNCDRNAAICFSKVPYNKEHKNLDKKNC

Turning to Phospholipase A2 wild type, P00593, the denaturant m value worked out at 1.47 kcal/mol/M, the “denaturant midpoint (higher = more stable)” value amounted to 6.9 M and the unfolding free energy stood at 9.5 kcal/mol.

The record behind these values is FireProtDB.
